# Data as given in the supplement of paper PMC12338614.
# ± gives the uncertainty stated by the source.
# B1: library; numbered along this chain (parent)
# chain: MEVVDPQQLGMFTEGELMSVGMDTFIHRIDSTEVIYQPRRKRAKLIGKYLMGDLLGEGSYGKVKEVLDSETLCRRAVKILKKKKLRRIPNGEANVKKEIQLLRRLRHKNVIQLVDVLYNEEKQKMYMVMEYCVCGMQEMLDSVPEKRFPVCQAHGYFCQLIDGLEYLHSQGIVHKDIKPGNLLLTTGGTLKISDLGVAEALHPFAADDTCRTSQGSPAFQPPEIANGLDTFSGFKVDIWSAGVTLYNITTGLYPFEGDNIYKLFENIGKGSYAIPGDCGPPLSDLLKGMLEYEPAKRFSIRQIRQHSWFRKKHPPAEAPVPIPPSPDTKDRWRSMTVVPYLEDLHGADEDEDLFDIEDDIIYTQDFTVPGQVPEEEASHNGQRRGLPKAVCMNGTEAAQLSTKSRAEGRAPNPARKACSASSKIRRLSACKQQ
# Variants of: B1
# Experiment: STK11 functional score (HeLa growth suppression), rescaled enrichment; synonymous median = 1, nonsense median = 0 (normalised score)
# Details: with HeLa; variant type: missense
# Description: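 Deep mutational scan (TileSeq/POPCode codon randomisation) of full-length codon-optimised STK11 cDNA integrated at a Bxb1 landing pad (AAVS1) in HeLa cells. Restoring functional STK11 suppresses HeLa proliferation. Variant frequencies were measured by NGS before and after about two weeks of growth. The error-corrected enrichment log-ratio was rescaled so that synonymous median = 1 and nonsense median = 0, scores above 1 were compressed, and codon-level and three biological replicate scores were combined; error is the bootstrapped standard error. Scale: synonymous median = 1, nonsense median = 0; below 0.5 = damaging.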
row,Variant,STK11 functional score
1,MELVDPQQLGMFTEGELMSVGMDTFIHRIDSTEVIYQPRRKRAKLIGKYLMGDLLGEGSYGKVKEVLDSETLCRRAVKILKKKKLRRIPNGEANVKKEIQLLRRLRHKNVIQLVDVLYNEEKQKMYMVMEYCVCGMQEMLDSVPEKRFPVCQAHGYFCQLIDGLEYLHSQGIVHKDIKPGNLLLTTGGTLKISDLGVAEALHPFAADDTCRTSQGSPAFQPPEIANGLDTFSGFKVDIWSAGVTLYNITTGLYPFEGDNIYKLFENIGKGSYAIPGDCGPPLSDLLKGMLEYEPAKRFSIRQIRQHSWFRKKHPPAEAPVPIPPSPDTKDRWRSMTVVPYLEDLHGADEDEDLFDIEDDIIYTQDFTVPGQVPEEEASHNGQRRGLPKAVCMNGTEAAQLSTKSRAEGRAPNPARKACSASSKIRRLSACKQQ [V3L],0.558 ± 0.13
2,MEDVDPQQLGMFTEGELMSVGMDTFIHRIDSTEVIYQPRRKRAKLIGKYLMGDLLGEGSYGKVKEVLDSETLCRRAVKILKKKKLRRIPNGEANVKKEIQLLRRLRHKNVIQLVDVLYNEEKQKMYMVMEYCVCGMQEMLDSVPEKRFPVCQAHGYFCQLIDGLEYLHSQGIVHKDIKPGNLLLTTGGTLKISDLGVAEALHPFAADDTCRTSQGSPAFQPPEIANGLDTFSGFKVDIWSAGVTLYNITTGLYPFEGDNIYKLFENIGKGSYAIPGDCGPPLSDLLKGMLEYEPAKRFSIRQIRQHSWFRKKHPPAEAPVPIPPSPDTKDRWRSMTVVPYLEDLHGADEDEDLFDIEDDIIYTQDFTVPGQVPEEEASHNGQRRGLPKAVCMNGTEAAQLSTKSRAEGRAPNPARKACSASSKIRRLSACKQQ [V3D],-0.174 ± 0.11
3,MEAVDPQQLGMFTEGELMSVGMDTFIHRIDSTEVIYQPRRKRAKLIGKYLMGDLLGEGSYGKVKEVLDSETLCRRAVKILKKKKLRRIPNGEANVKKEIQLLRRLRHKNVIQLVDVLYNEEKQKMYMVMEYCVCGMQEMLDSVPEKRFPVCQAHGYFCQLIDGLEYLHSQGIVHKDIKPGNLLLTTGGTLKISDLGVAEALHPFAADDTCRTSQGSPAFQPPEIANGLDTFSGFKVDIWSAGVTLYNITTGLYPFEGDNIYKLFENIGKGSYAIPGDCGPPLSDLLKGMLEYEPAKRFSIRQIRQHSWFRKKHPPAEAPVPIPPSPDTKDRWRSMTVVPYLEDLHGADEDEDLFDIEDDIIYTQDFTVPGQVPEEEASHNGQRRGLPKAVCMNGTEAAQLSTKSRAEGRAPNPARKACSASSKIRRLSACKQQ [V3A],1.46 ± 0.16
4,MEMVDPQQLGMFTEGELMSVGMDTFIHRIDSTEVIYQPRRKRAKLIGKYLMGDLLGEGSYGKVKEVLDSETLCRRAVKILKKKKLRRIPNGEANVKKEIQLLRRLRHKNVIQLVDVLYNEEKQKMYMVMEYCVCGMQEMLDSVPEKRFPVCQAHGYFCQLIDGLEYLHSQGIVHKDIKPGNLLLTTGGTLKISDLGVAEALHPFAADDTCRTSQGSPAFQPPEIANGLDTFSGFKVDIWSAGVTLYNITTGLYPFEGDNIYKLFENIGKGSYAIPGDCGPPLSDLLKGMLEYEPAKRFSIRQIRQHSWFRKKHPPAEAPVPIPPSPDTKDRWRSMTVVPYLEDLHGADEDEDLFDIEDDIIYTQDFTVPGQVPEEEASHNGQRRGLPKAVCMNGTEAAQLSTKSRAEGRAPNPARKACSASSKIRRLSACKQQ [V3M],0.72 ± 0.44
5,MESVDPQQLGMFTEGELMSVGMDTFIHRIDSTEVIYQPRRKRAKLIGKYLMGDLLGEGSYGKVKEVLDSETLCRRAVKILKKKKLRRIPNGEANVKKEIQLLRRLRHKNVIQLVDVLYNEEKQKMYMVMEYCVCGMQEMLDSVPEKRFPVCQAHGYFCQLIDGLEYLHSQGIVHKDIKPGNLLLTTGGTLKISDLGVAEALHPFAADDTCRTSQGSPAFQPPEIANGLDTFSGFKVDIWSAGVTLYNITTGLYPFEGDNIYKLFENIGKGSYAIPGDCGPPLSDLLKGMLEYEPAKRFSIRQIRQHSWFRKKHPPAEAPVPIPPSPDTKDRWRSMTVVPYLEDLHGADEDEDLFDIEDDIIYTQDFTVPGQVPEEEASHNGQRRGLPKAVCMNGTEAAQLSTKSRAEGRAPNPARKACSASSKIRRLSACKQQ [V3S],1.35 ± 0.17
6,MEFVDPQQLGMFTEGELMSVGMDTFIHRIDSTEVIYQPRRKRAKLIGKYLMGDLLGEGSYGKVKEVLDSETLCRRAVKILKKKKLRRIPNGEANVKKEIQLLRRLRHKNVIQLVDVLYNEEKQKMYMVMEYCVCGMQEMLDSVPEKRFPVCQAHGYFCQLIDGLEYLHSQGIVHKDIKPGNLLLTTGGTLKISDLGVAEALHPFAADDTCRTSQGSPAFQPPEIANGLDTFSGFKVDIWSAGVTLYNITTGLYPFEGDNIYKLFENIGKGSYAIPGDCGPPLSDLLKGMLEYEPAKRFSIRQIRQHSWFRKKHPPAEAPVPIPPSPDTKDRWRSMTVVPYLEDLHGADEDEDLFDIEDDIIYTQDFTVPGQVPEEEASHNGQRRGLPKAVCMNGTEAAQLSTKSRAEGRAPNPARKACSASSKIRRLSACKQQ [V3F],0.991 ± 0.32
7,MEGVDPQQLGMFTEGELMSVGMDTFIHRIDSTEVIYQPRRKRAKLIGKYLMGDLLGEGSYGKVKEVLDSETLCRRAVKILKKKKLRRIPNGEANVKKEIQLLRRLRHKNVIQLVDVLYNEEKQKMYMVMEYCVCGMQEMLDSVPEKRFPVCQAHGYFCQLIDGLEYLHSQGIVHKDIKPGNLLLTTGGTLKISDLGVAEALHPFAADDTCRTSQGSPAFQPPEIANGLDTFSGFKVDIWSAGVTLYNITTGLYPFEGDNIYKLFENIGKGSYAIPGDCGPPLSDLLKGMLEYEPAKRFSIRQIRQHSWFRKKHPPAEAPVPIPPSPDTKDRWRSMTVVPYLEDLHGADEDEDLFDIEDDIIYTQDFTVPGQVPEEEASHNGQRRGLPKAVCMNGTEAAQLSTKSRAEGRAPNPARKACSASSKIRRLSACKQQ [V3G],1.47 ± 0.26
8,MEIVDPQQLGMFTEGELMSVGMDTFIHRIDSTEVIYQPRRKRAKLIGKYLMGDLLGEGSYGKVKEVLDSETLCRRAVKILKKKKLRRIPNGEANVKKEIQLLRRLRHKNVIQLVDVLYNEEKQKMYMVMEYCVCGMQEMLDSVPEKRFPVCQAHGYFCQLIDGLEYLHSQGIVHKDIKPGNLLLTTGGTLKISDLGVAEALHPFAADDTCRTSQGSPAFQPPEIANGLDTFSGFKVDIWSAGVTLYNITTGLYPFEGDNIYKLFENIGKGSYAIPGDCGPPLSDLLKGMLEYEPAKRFSIRQIRQHSWFRKKHPPAEAPVPIPPSPDTKDRWRSMTVVPYLEDLHGADEDEDLFDIEDDIIYTQDFTVPGQVPEEEASHNGQRRGLPKAVCMNGTEAAQLSTKSRAEGRAPNPARKACSASSKIRRLSACKQQ [V3I],1.06 ± 0.43
9,MEWVDPQQLGMFTEGELMSVGMDTFIHRIDSTEVIYQPRRKRAKLIGKYLMGDLLGEGSYGKVKEVLDSETLCRRAVKILKKKKLRRIPNGEANVKKEIQLLRRLRHKNVIQLVDVLYNEEKQKMYMVMEYCVCGMQEMLDSVPEKRFPVCQAHGYFCQLIDGLEYLHSQGIVHKDIKPGNLLLTTGGTLKISDLGVAEALHPFAADDTCRTSQGSPAFQPPEIANGLDTFSGFKVDIWSAGVTLYNITTGLYPFEGDNIYKLFENIGKGSYAIPGDCGPPLSDLLKGMLEYEPAKRFSIRQIRQHSWFRKKHPPAEAPVPIPPSPDTKDRWRSMTVVPYLEDLHGADEDEDLFDIEDDIIYTQDFTVPGQVPEEEASHNGQRRGLPKAVCMNGTEAAQLSTKSRAEGRAPNPARKACSASSKIRRLSACKQQ [V3W],0.953 ± 0.5
10,MEPVDPQQLGMFTEGELMSVGMDTFIHRIDSTEVIYQPRRKRAKLIGKYLMGDLLGEGSYGKVKEVLDSETLCRRAVKILKKKKLRRIPNGEANVKKEIQLLRRLRHKNVIQLVDVLYNEEKQKMYMVMEYCVCGMQEMLDSVPEKRFPVCQAHGYFCQLIDGLEYLHSQGIVHKDIKPGNLLLTTGGTLKISDLGVAEALHPFAADDTCRTSQGSPAFQPPEIANGLDTFSGFKVDIWSAGVTLYNITTGLYPFEGDNIYKLFENIGKGSYAIPGDCGPPLSDLLKGMLEYEPAKRFSIRQIRQHSWFRKKHPPAEAPVPIPPSPDTKDRWRSMTVVPYLEDLHGADEDEDLFDIEDDIIYTQDFTVPGQVPEEEASHNGQRRGLPKAVCMNGTEAAQLSTKSRAEGRAPNPARKACSASSKIRRLSACKQQ [V3P],1.69 ± 0.37
11,MVVVDPQQLGMFTEGELMSVGMDTFIHRIDSTEVIYQPRRKRAKLIGKYLMGDLLGEGSYGKVKEVLDSETLCRRAVKILKKKKLRRIPNGEANVKKEIQLLRRLRHKNVIQLVDVLYNEEKQKMYMVMEYCVCGMQEMLDSVPEKRFPVCQAHGYFCQLIDGLEYLHSQGIVHKDIKPGNLLLTTGGTLKISDLGVAEALHPFAADDTCRTSQGSPAFQPPEIANGLDTFSGFKVDIWSAGVTLYNITTGLYPFEGDNIYKLFENIGKGSYAIPGDCGPPLSDLLKGMLEYEPAKRFSIRQIRQHSWFRKKHPPAEAPVPIPPSPDTKDRWRSMTVVPYLEDLHGADEDEDLFDIEDDIIYTQDFTVPGQVPEEEASHNGQRRGLPKAVCMNGTEAAQLSTKSRAEGRAPNPARKACSASSKIRRLSACKQQ [E2V],1.36 ± 0.83
12,MKVVDPQQLGMFTEGELMSVGMDTFIHRIDSTEVIYQPRRKRAKLIGKYLMGDLLGEGSYGKVKEVLDSETLCRRAVKILKKKKLRRIPNGEANVKKEIQLLRRLRHKNVIQLVDVLYNEEKQKMYMVMEYCVCGMQEMLDSVPEKRFPVCQAHGYFCQLIDGLEYLHSQGIVHKDIKPGNLLLTTGGTLKISDLGVAEALHPFAADDTCRTSQGSPAFQPPEIANGLDTFSGFKVDIWSAGVTLYNITTGLYPFEGDNIYKLFENIGKGSYAIPGDCGPPLSDLLKGMLEYEPAKRFSIRQIRQHSWFRKKHPPAEAPVPIPPSPDTKDRWRSMTVVPYLEDLHGADEDEDLFDIEDDIIYTQDFTVPGQVPEEEASHNGQRRGLPKAVCMNGTEAAQLSTKSRAEGRAPNPARKACSASSKIRRLSACKQQ [E2K],1.16 ± 0.78
13,MQVVDPQQLGMFTEGELMSVGMDTFIHRIDSTEVIYQPRRKRAKLIGKYLMGDLLGEGSYGKVKEVLDSETLCRRAVKILKKKKLRRIPNGEANVKKEIQLLRRLRHKNVIQLVDVLYNEEKQKMYMVMEYCVCGMQEMLDSVPEKRFPVCQAHGYFCQLIDGLEYLHSQGIVHKDIKPGNLLLTTGGTLKISDLGVAEALHPFAADDTCRTSQGSPAFQPPEIANGLDTFSGFKVDIWSAGVTLYNITTGLYPFEGDNIYKLFENIGKGSYAIPGDCGPPLSDLLKGMLEYEPAKRFSIRQIRQHSWFRKKHPPAEAPVPIPPSPDTKDRWRSMTVVPYLEDLHGADEDEDLFDIEDDIIYTQDFTVPGQVPEEEASHNGQRRGLPKAVCMNGTEAAQLSTKSRAEGRAPNPARKACSASSKIRRLSACKQQ [E2Q],1.21 ± 0.54
14,MEVDDPQQLGMFTEGELMSVGMDTFIHRIDSTEVIYQPRRKRAKLIGKYLMGDLLGEGSYGKVKEVLDSETLCRRAVKILKKKKLRRIPNGEANVKKEIQLLRRLRHKNVIQLVDVLYNEEKQKMYMVMEYCVCGMQEMLDSVPEKRFPVCQAHGYFCQLIDGLEYLHSQGIVHKDIKPGNLLLTTGGTLKISDLGVAEALHPFAADDTCRTSQGSPAFQPPEIANGLDTFSGFKVDIWSAGVTLYNITTGLYPFEGDNIYKLFENIGKGSYAIPGDCGPPLSDLLKGMLEYEPAKRFSIRQIRQHSWFRKKHPPAEAPVPIPPSPDTKDRWRSMTVVPYLEDLHGADEDEDLFDIEDDIIYTQDFTVPGQVPEEEASHNGQRRGLPKAVCMNGTEAAQLSTKSRAEGRAPNPARKACSASSKIRRLSACKQQ [V4D],1.45 ± 0.39
